# Laboratory results from patent US9616101B2, “Differentiation marker and differentiation control of eye cell” (Kyoto Prefectural Public University Corporation, priority 2012, dated 2017).
# “Also recorded” adds a separate entry of the source.
# B1: R-spondin 1: Recombinant Human R-spondin 1 (R&D Cat. 4645-RS); ligand of GPR49/LGR5 (protein, listed as Homo sapiens)
# chain: MRLGLCVVALVLSWTHLTISSRGIKGKRQRRISAEGSQACAKGCELCSEVNGCLKCSPKLFILLERNDIRQVGVCLPSCPPGYFDARNPDMNKCIKCKIEHCEACFSHNFCTKCKEGLYLHKGRCYPACPEGSSAANGTMECSSPAQCEMSEWSPWGPCSKKQQLCGFRRGSEERTRRVLHAPVGDHAACSDTKETRRCTVRRVPCPEGQKRRKGGQGRRENANRNLARKESKEAGAGSRRRKGQQQQQQQGTVGPLTSAGPA
# Assays:
# [1] = system: cultured monkey corneal endothelial cell; test: Cell density measurement (Konan KSS-400EB) after R-spondin 1 addition; type: cell-based, cynomolgus monkey; conditions: 10 ng/ml or 50 ng/ml R-spondin 1; 48 hours after addition
# Experimental: (§1) A cultured monkey corneal endothelial cell (Lot. 20111222-4 P2) was treated with 0.05% trypsin at 37° C. for 10 minutes, peeled from a T-25 flask, and suspended in a culture medium (10% FBS+bFGF/DMEM). The number of cells was counted, and the suspension was adjusted with a culture medium to 3×10^4 cells/300 μl. Cells were seeded on a Lab-TekII chamber Slide (8 well) coated with FNS, in 300 μl/well.
# At 7 days after cell seeding, a medium was exchanged with a medium containing R-spondin 1 (0, 10, 50 ng/ml) in the state where cells were almost confluent, and at 24 hours after addition of R-spondin 1, Click-iT EdU was added so that the final concentration was 10 μM. (Although a manual of Kit recommended that a half of a medium was exchanged, a medium was not exchanged) After additional 24 hours (48 hours after addition of R-spondin 1), cells were fixed with 4% PFA/PBS, EdU was detected according to a manual of Kit, and the EdU-positive cell rate was counted (FIGS. 8 and 9).
# A chamber slide after staining was photographed with a phase contrast microscope, and the cell density was measured using the corneal endothelial cell density calculating software, Konan Storage System KSS-400EB (FIG. 10).
# [2] = system: human corneal endothelial cell in the confluent state; test: Cell density of confluent human corneal endothelial cells cultured with R-spondin 1; type: cell-based; conditions: R-spondin 1 10 ng/ml, 566.8 at addition
# Excerpt: • (Source and culture method): As a human corneal endothelial cell, a corneal endothelial cell was mechanically peeled together with a basal membrane from a cornea for research, purchased from Seattle Eye Bank, and the corneal endothelial cell was peeled and recovered from the basal membrane using collagenase (ROCHE catalog No.: 10 103 586 001), and was subjected to primary culturing. As a medium, for human, Opti-MEM I Reduced-Serum Medium, Liquid (INVITROGEN catalog No.: 31985-070), 8% fetal bovine serum (FES) (BIOWEST, catalog No.: S1820-500), […] CaCl2.2H2O (SIGMA catalog No.: C7902-500G), 0.08% chondroitin sulfate (SIGMA catalog No.: C9819-5G), 20 μg/ml ascorbic acid (SIGMA catalog No.: A4544-25G), 50 μg/ml gentamicin (INVITROGEN catalog No.: 15710-064) and 5 ng/ml EGF (INVITROGEN catalog No.: PHG0311), acclimated for a 3T3 feeder cell, were used.
# After subculturing, at the time point where cells reached confluent and were cultured for 2 weeks or longer, and no clear change in the corneal endothelium density was recognized, R-spondin 1 was added into a medium in a concentration of 10 ng/ml, and culture was continued. Observation of cell morphology was performed with a phase contrast microscope, and the cell density was calculated.
# [3] = system: corneal endothelial cell of rabbit sclerocorneal section; test: Organ culture of rabbit sclerocorneal section with R-spondin 1: Ki67-positive cell rate; type: cell-based, white rabbit; conditions: control about 1.0%
# Experimental: Eyeballs of white rabbit (Nacalai) euthanized for another object were purchased, and a sclerocorneal section was prepared. The sclerocorneal section was cultured in an incubator at 37° C. for 1 week in DMEM (INVITROGEN, catalog No.: 12320) and 10% fetal bovine serum (FBS) (BIOWEST, catalog No.: 51820-500). […] A corneal endothelial cell was subjected to nuclear staining with DAPI, and the Ki67-positive cell rate was calculated. In addition, a corneal endothelial cell was immunostained with ZO-1, and the cell density was calculated.
# [4] = system: cultured monkey corneal endothelial cell; test: Detection of proliferating cells with Click-iT EdU Imaging Kit after R-spondin 1 addition; type: cell-based, cynomolgus monkey; conditions: 10 ng/ml or 50 ng/ml R-spondin 1; almost confluent cells; 48 hours after addition
# Experimental: After addition of an R-spondin 1 protein to a cultured monkey corneal endothelial cell and culturing for 48 hours, a cell during proliferation was detected using the Click-iT Edu imaging Kit, and the positivity rates of EdU and the cell densities of a control cell and a cell to which R-spondin 1 was added were compared.
# EdU (5-ethynyl-2′-deoxyuridine) is a modified nucleic acid taken into DNA at a DNA synthesis phase by a chemical reaction, and is widely used in place of a conventional BrdU for identifying a DNA synthesis phase cell. By measuring the positivity rate of EdU, the proliferative cell rate in a cultured cell is found.
# as §1
# At 7 days after cell seeding, a medium was exchanged with a medium containing R-spondin 1 (0, 10, 50 ng/ml) in the state where cells were almost confluent, and at 24 hours after addition of R-spondin 1, Click-iT EdU was added so that the final concentration was 10 μM. […]
molecule,measurement,setting,value
B1,cell density as compared with a control,[1],1.3 times
same,corneal endothelial cell density,[2]; 7th day,about 695 cells/mm^2
same,corneal endothelial cell density,[2]; after 14 days,about 875 cells/mm^2
same,corneal endothelial cell density,"[2]; after 21 days, control without R-spondin 1 535.4",995.8 cells/mm^2
same,rate of a Ki67-positive cell,"[3]; 1 ng/ml R-spondin 1, 1 week",4.49%
same,rate of a Ki67-positive cell,"[3]; 10 ng/ml R-spondin 1, 1 week",10.58%
same,rate of a Ki67-positive cell,"[3]; 100 ng/ml R-spondin 1, 1 week",7.94%
same,EdU-positive cell/DAPI as compared with a control,[4],increased two times; also recorded: increased twice
